Results reported in CN101415728A (dated 2009).

B1: 小鼠IGF-1R(1-903)-Fc (Fc fusion)
chain: not shown
notes: range 1-903; also called mIGF-1R-Fc; mIGF1R; not shown: C-terminal human IgG1-Fc tag
B2: M14-B01 Fab (Fab, V domains shown)
VH: EVQLLESGGGLVQPGGSLRLSCAASGFTFSNYHMAWVRQAPGKGLEWVSVISPTGGRTTYADSVKGRFTISRDNSKNTLYLQMNSLRAEDTATYYCARAGYSYGYGYFDYWGQGTLVTVSS
VL: DIQMTQFPATLSVSPGERATLSCRASQSVMRNLAWYQQKPGQPPRLLIYGASKRATGIPARFSGSGSGTAFTLTISNLEPEDFAVYYCHQRSTWPLGTFGPGTKLEAK
notes: Human Fab from a phage library (VH3-23, kappa)
B3: M14-G11.G4.P (antibody, human IgG4, V domains shown, not shown: a dimerising Fc or GST)
VH: EVQLLESGGGLVQPGGSLRLSCAASGFTFSNYPMYWVRQAPGKGLEWVSRISSSGGRTVYADSVKGRFTISRDNSKNTLYLQMNSLRAEDTAVYYCARDRWSRSAAEYGLGGYWGQGTLVTVSS
VL: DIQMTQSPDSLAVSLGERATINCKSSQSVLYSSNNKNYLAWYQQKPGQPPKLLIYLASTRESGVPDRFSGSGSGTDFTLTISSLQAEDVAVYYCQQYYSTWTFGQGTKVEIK
B4: M12-E01 Fab (Fab, V domains shown)
VH: EVQLLESGGGLVQPGGSLRLSCAASGFTFSPYSMLWVRQAPGKGLEWVSSIGSSGGSTRYADSVKGRFTISRDNSKNTLYLQMNSLRAEDTAMYYCARVRGILHYDILIGRNLYYYYMDVWGKGTTVTVSS
VL: QYELTQPPSVSEAPRQRVTISCSGSSSNIGNNAINWYQQLPGKPPKLLIYYDDLLPSGVSDRFSGSKSGTSGSLAISGLQSEDEADYYCAAWDDNLNGVIFGGGTKLTVL
notes: Human Fab from a phage library (VH3-23, lambda light chain)
B5: M13-C06 Fab (Fab, V domains shown)
VH: EVQLLESGGGLVQPGGSLRLSCAASGFTFSIYRMQWVRQAPGKGLEWVSGISPSGGTTWYADSVKGRFTISRDNSKNTLYLQMNSLRAEDTAVYYCARWSGGSGYAFDIWGQGTMVTVSS
VL: DIQMTQSPLSLSASVGDRVTITCQASRDIRNYLNWYQQKPGKAPKLLIYDASSLQTGVPSRFGGSGSGTDFSFTIGSLQPEDIATYYCQQFDSLPHTFGQGTKLEIK
notes: Human Fab from a phage library (VH3-23 germline framework, kappa light chain)
B6: M13-C06 antibody (full-length, IgG4 version not stated) (antibody, V domains shown)
VH: B5 VH
VL: B5 VL
notes: Fully human full-length antibody; In tr-FRET it carried a europium chelate (10.3:1 Eu:C06); also called M13-C06_Ab; Eu-C06

What was measured:
[1] = target: B6; test: tr-FRET competition against Cy5-IGF1R-His10 for Eu-C06
人INSR(28-956)-His 10 [2] = target: T1, 人INSR(28-956)-His 10 (human, UniProt P06213 28-956); test: ELISA on plates coated with rh-INSR
T1 construct: range 28-956; Bought from R&D Systems; also called INSR-His 10; rh-INSR (R&D Systems #1544-IR)
T1 sequence (P06213 other isoform, or with tags, fused parts or gaps limits assumed): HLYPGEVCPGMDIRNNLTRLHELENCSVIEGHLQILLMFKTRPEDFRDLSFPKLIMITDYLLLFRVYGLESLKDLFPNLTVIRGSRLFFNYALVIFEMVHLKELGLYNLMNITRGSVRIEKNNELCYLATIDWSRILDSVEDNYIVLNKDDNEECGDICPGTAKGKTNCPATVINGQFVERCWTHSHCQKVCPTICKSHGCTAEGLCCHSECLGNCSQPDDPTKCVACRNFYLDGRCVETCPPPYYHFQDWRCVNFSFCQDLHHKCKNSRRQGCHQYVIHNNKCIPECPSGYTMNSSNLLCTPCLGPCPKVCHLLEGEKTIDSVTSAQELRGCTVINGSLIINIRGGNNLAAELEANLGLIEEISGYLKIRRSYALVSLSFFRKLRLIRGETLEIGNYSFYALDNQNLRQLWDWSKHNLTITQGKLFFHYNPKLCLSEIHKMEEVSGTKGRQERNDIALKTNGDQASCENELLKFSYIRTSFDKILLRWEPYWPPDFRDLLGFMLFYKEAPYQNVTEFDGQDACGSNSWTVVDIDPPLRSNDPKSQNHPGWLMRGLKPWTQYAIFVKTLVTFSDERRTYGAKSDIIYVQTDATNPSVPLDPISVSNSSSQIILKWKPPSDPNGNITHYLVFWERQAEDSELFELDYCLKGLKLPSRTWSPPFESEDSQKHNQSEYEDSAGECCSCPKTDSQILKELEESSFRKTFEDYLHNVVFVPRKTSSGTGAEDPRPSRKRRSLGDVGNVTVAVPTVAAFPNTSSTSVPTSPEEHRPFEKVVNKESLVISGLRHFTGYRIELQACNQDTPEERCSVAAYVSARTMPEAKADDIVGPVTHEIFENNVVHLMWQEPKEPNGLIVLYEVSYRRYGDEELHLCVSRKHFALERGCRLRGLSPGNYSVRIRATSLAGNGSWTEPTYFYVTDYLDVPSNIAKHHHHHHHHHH

[3] = target: human IGF-1R expressed on cells (human); test: cell-based or functional assay
小鼠IGF-1R(1-903)-Fc [4] = target: B1; test: SPR, receptor-Fc captured by anti-human IgG-Fc, Fab injected, 1:1 model (also printed as 89.1nM)
小鼠IGF-1R(1-903)-Fc, sequence (Q60751 31-933 limits assumed): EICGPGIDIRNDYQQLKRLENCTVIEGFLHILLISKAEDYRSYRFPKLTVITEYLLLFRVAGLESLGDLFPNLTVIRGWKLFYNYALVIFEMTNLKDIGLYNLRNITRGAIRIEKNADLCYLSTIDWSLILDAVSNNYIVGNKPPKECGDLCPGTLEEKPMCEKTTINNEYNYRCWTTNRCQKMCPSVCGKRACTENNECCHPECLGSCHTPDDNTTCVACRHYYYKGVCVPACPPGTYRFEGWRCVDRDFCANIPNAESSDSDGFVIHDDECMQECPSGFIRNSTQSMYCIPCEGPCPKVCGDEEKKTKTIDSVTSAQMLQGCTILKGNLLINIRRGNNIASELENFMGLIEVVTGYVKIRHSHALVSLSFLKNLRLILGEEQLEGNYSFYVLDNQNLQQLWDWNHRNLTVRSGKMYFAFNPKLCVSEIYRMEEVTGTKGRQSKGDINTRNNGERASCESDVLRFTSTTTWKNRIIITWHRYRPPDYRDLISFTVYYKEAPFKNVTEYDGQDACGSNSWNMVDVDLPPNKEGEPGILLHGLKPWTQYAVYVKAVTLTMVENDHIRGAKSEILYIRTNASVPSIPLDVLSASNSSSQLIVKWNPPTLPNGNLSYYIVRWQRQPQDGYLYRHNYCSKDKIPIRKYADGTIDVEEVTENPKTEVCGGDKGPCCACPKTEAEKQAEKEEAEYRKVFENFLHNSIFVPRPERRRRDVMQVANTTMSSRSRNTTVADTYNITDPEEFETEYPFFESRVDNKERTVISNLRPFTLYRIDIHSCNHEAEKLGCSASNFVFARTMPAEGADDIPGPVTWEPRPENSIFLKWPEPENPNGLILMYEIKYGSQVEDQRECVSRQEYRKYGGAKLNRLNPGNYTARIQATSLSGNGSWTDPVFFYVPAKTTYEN

小鼠IGF-1R(1-903)-Fc [5] = target: B1; test: SPR, compared with hIGF-1R-Fc
小鼠IGF-1R(1-903)-Fc [6] = target: B1; test: SPR, receptor-Fc captured by anti-human IgG-Fc, Fab injected, 1:1 model
小鼠IGF-1R(1-903)-Fc [7] = target: B1; test: SPR, second run with 3 h dissociation
人INSR(28-956)-His 10 [8] = target: T1, 人INSR(28-956)-His 10; test: tr-FRET competition (Eu-C06 / Cy5-hIGF-1R-His10)

Binder: B1
- IC50 [1]: > 100 µg/mL

Binder: B2
- binding result (人INSR(28-956)-His 10 [2]): no binding (tested: 2μM)

Binder: B3
- inhibition of IGF-1- and IGF-2-mediated IGF-1R phosphorylation in MCF-7 cells, EC50 [3]: < 1 nM

Binder: B4
- binding result (人INSR(28-956)-His 10 [2]): no binding (tested: 2μM)

Binder: B5
- Kd (小鼠IGF-1R(1-903)-Fc [4]): 89.1 nM
- binding result (人INSR(28-956)-His 10 [2]): no binding (tested: 2μM)
- fold decrease of binding against human IGF-1R (小鼠IGF-1R(1-903)-Fc [5]): 100 fold
- kon (小鼠IGF-1R(1-903)-Fc [6]): 471 M⁻¹ s⁻¹
- koff (小鼠IGF-1R(1-903)-Fc [7]): 4.2e-05 s⁻¹

Binder: B6
- binding result (人INSR(28-956)-His 10 [8]): no binding (tested: IC50以上100倍的浓度)
